Article PMC12093947, “Cobalt modulates methanol turnover of the alcohol dehydrogenase in Desulfofundulus kuznetsovii strain TPOSR” (Applied and Environmental Microbiology, 2025)

Tested on: NC(=O)c1ccc[n+]([C@@H]2O[C@H](COP(=O)(O)OP(=O)(O)OC[C@H]3O[C@@H](n4cnc5c(N)ncnc54)[C@H](O)[C@@H]3O)[C@@H](O)[C@H]2O)c1
Test: purified protein
Settings: without added Co, methanol 0.75-3000 mM, 50 mM Bis-tris propane, 55 °C, rapid-equilibrium, NAD+ binds first, brackets 95% confidence interval, varied: cofactor

Q: Which results are given for “TPOSR Adh1 (Desulfofundulus kuznetsovii)”?
A: Km: 0.550 [0.26, 1.3] mM; kcat: 1.76 s⁻¹
